From US20230414780A1 (VECT HORUS, published 2023)
Positions count from the first letter of the chain named.

How the values were obtained:
[1] = target: T1, mouse transferrin receptor (mTfR) fused to EGFP, on CHO cells (mouse, UniProt Q62351 1-763); assay: apparent Kd, flow cytometry, CHO cells
T1 construct: whole, on cells; also called mouse TfR; CHO-mTfR-EGFP; not shown: EGFP
Protocol: (§1) All experiments were performed in 96 well plates using 2×10⁵ cells/well, at 4° C. with shaking. CHO cell lines stably expressing the hTfR or the mTfR fused to EGFP or CHO WT cells were saturated with PBS/BSA 2% solution during 30 min to avoid non-specific binding, followed by incubation with purified VHHs at concentrations ranging from 50 μM to 5 μM for 1 hr. After one wash in PBS/BSA 2%, cells were incubated for 1 hr with an anti-6His tag antibody (mouse), washed twice with PBS/BSA 2%, and incubated for 45 min with an Alexa647-conjugated anti-mouse secondary antibody. After two last washes in PBS/BSA 2%, cells were fixed by incubation for 15 min with PBS/PFA 2%, washed once with PBS and finally resuspended in PBS and stored at 4° C. Fluorescence levels were assessed using an Attune NxT Flow Cytometer (Thermo Fisher Scientific). […] No labeling of the CHO WT control cells was detected with all the tested VHHs (not shown). The VHH K_{d app} were calculated using GraphPad Prism software (FIG. 11-B; 12-B).

[2] = target: T2, human TfR ectodomain fused to a mouse IgG1 Fc fragment (human, UniProt P02786 89-760); assay: SPR, at equilibrium
T2 construct: extracellular domain; ectodomain fused to the N-terminal end of the Fc, made in-house; not shown: mouse IgG1 Fc fragment
T2 sequence (P02786 89-760): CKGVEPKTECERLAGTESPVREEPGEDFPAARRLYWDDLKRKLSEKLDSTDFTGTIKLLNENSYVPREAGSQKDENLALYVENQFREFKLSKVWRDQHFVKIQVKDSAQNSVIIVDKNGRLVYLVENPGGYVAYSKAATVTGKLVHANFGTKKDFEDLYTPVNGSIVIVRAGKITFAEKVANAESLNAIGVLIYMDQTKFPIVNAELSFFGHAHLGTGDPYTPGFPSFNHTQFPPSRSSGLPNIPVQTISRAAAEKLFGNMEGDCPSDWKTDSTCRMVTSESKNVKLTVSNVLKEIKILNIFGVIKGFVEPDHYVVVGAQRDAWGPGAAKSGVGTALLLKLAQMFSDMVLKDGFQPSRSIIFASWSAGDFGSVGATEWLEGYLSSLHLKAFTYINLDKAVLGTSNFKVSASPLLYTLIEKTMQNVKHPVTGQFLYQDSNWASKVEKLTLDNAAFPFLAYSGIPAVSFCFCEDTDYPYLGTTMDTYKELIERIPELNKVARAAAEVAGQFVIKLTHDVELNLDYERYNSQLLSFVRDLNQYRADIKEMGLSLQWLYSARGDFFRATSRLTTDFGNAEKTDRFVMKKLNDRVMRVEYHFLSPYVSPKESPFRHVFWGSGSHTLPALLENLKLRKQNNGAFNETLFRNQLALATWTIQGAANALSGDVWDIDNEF
Summary of the method: (§2)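 TfR–mouse Fc fusions, produced in-house, captured on HC 1500M or CM5 chips either directly or via immobilized anti-mouse IgG. VHHs injected in single-cycle or multiple-cycle kinetic mode on Biacore T200.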

[3] = target: T2, human TfR ectodomain fused to a mouse …; assay: SPR, kinetic
Summary of the method: as §2

[4] = target: T3, human transferrin receptor (hTfR) fused to EGFP, on CHO cells (human, UniProt P02786 1-760); assay: flow cytometry on CHO-hTfR-EGFP cells, 1 hr at 4 C, anti-6His + Alexa647 anti-mouse; apparent Kd, mean ± SEM of 3 experiments
T3 construct: whole, on cells; also called human TfR; CHO-hTfR-EGFP; not shown: EGFP from pEGFP-C1 vector, fused to the N-terminal (intracellular) end of hTfR
T3 sequence (P02786 whole entry, the tested form may be a part): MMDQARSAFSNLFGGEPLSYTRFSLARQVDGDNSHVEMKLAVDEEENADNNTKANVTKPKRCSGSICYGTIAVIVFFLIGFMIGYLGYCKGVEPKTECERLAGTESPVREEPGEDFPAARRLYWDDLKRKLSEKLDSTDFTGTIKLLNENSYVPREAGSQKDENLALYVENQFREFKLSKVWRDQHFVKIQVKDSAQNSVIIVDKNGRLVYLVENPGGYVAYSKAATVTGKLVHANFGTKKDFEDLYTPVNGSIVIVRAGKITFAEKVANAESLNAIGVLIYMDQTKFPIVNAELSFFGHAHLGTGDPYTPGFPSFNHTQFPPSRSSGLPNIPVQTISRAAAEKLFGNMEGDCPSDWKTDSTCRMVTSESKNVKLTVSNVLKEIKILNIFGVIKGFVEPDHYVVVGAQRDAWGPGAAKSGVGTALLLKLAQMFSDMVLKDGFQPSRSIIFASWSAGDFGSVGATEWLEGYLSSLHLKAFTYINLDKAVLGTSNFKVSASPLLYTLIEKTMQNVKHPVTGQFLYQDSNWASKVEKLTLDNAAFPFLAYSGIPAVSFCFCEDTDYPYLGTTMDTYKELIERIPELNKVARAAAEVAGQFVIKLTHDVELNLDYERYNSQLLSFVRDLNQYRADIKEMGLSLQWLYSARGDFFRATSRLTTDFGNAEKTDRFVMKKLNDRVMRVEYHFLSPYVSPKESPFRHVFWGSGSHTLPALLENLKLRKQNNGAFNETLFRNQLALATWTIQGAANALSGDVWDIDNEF
Protocol: (§3) (A) CHO-hTfR-EGFP and CHO-mTfR-EGFP cells were incubated 1 hr at 4° C. with various concentrations of VHHs, detected with a mouse anti-6His (1/1000) and an Alexa647-conjugated anti-mouse secondary antibody (1/400). Measurements were performed using flow cytometry. The ratio of fluorescence intensity for each point was normalized with the corresponding EGFP signal (receptor expression) and gave rise to the arbitrary unit. Data are presented as mean±SEM of 3 independent experiments. (B) Characteristics of VHHs: Molecular Weight (Da); Theoretical pI; Apparent Kd on human TfR (nM); Apparent Kd on mouse TfR (nM). Data are presented as mean±SEM of 3 independent experiments. NB: no binding, LB: low binding.
All experiments were performed in 96 well plates using 2×10⁵ cells/well, at 4° C. with shaking. CHO cell lines stably expressing the hTfR or the mTfR fused to EGFP or CHO WT cells were saturated with PBS/BSA 2% solution during 30 min to avoid non-specific binding, followed by incubation with purified VHHs at concentrations ranging from 50 μM to 5 μM for 1 hr. After one wash in PBS/BSA 2%, cells were incubated for 1 hr with an anti-6His tag antibody (mouse), washed twice with PBS/BSA 2%, and incubated for 45 min with an Alexa647-conjugated anti-mouse secondary antibody. […] Fluorescence levels were assessed using an Attune NxT Flow Cytometer (Thermo Fisher Scientific).

[5] = target: T3, human transferrin receptor (hTfR) fused …; assay: flow cytometry on CHO-hTfR-EGFP cells, 1 hr at 4 C, anti-6His + Alexa647 anti-mouse; nonlinear fit
Protocol: CHO-hTfR-EGFP cells were incubated 1 hr at 4° C. with various concentrations of the indicated compounds. Detection of VHHs was performed using a primary mouse anti-6His (1/1000) and an Alexa647-conjugated anti-mouse secondary antibody (1/400). Measurements of cell-surface signal associated with VHH were performed using flow cytometry. The results are expressed as the ratio of Alexa647-associated fluorescence intensity of test compounds to that of background fluorescence.

[6] = target: T3, human transferrin receptor (hTfR) fused …; assay: flow cytometry on CHO-hTfR-EGFP cells, 1 hr at 4 C, anti-6His + Alexa647 anti-mouse; apparent Kd, mean ± SEM of 3 experiments; remark: listed apart in the source
Protocol: (§4) (A) CHO-hTfR-EGFP and CHO-mTfR-EGFP cells were incubated 1 hr at 4° C. with various concentrations of VHHs, detected with a mouse anti-6His (1/1000) and an Alexa647-conjugated anti-mouse secondary antibody (1/400). Measurements were performed using flow cytometry.
as §1

[7] = target: T3, human transferrin receptor (hTfR) fused …; assay: apparent Kd, flow cytometry, CHO cells
Protocol: as §1

[8] = target: T1, mouse transferrin receptor (mTfR) fused …; assay: flow cytometry on CHO-mTfR-EGFP cells, 1 hr at 4 C, anti-6His + Alexa647 anti-mouse; apparent Kd, mean ± SEM of 3 experiments
Protocol: as §4, §1

[9] = target: T1, mouse transferrin receptor (mTfR) fused …; assay: flow cytometry on CHO-mTfR-EGFP cells, 1 hr at 4 C, Alexa647 anti-mouse; apparent Kd, mean ± SEM of 3 experiments
Protocol: as §3, with “FIGS. 13A-13B: Apparent Kd determination of 13C3-HC-VHH fusions on hTfR- and mTfR-expressing CHO cell lines. (A)” for “(A)”, “13C3 fusions and” for “VHHs,”, “with” for “with a mouse anti-6His (1/1000) and”, “anti-mouse” for “anti-mouse secondary”, “13C3 fusions:” for “VHHs:”, “(Da);” for “(Da); Theoretical pI;”
All experiments were performed in 96 well plates using 2×10⁵ cells/well, at 4° C. with shaking. CHO cell lines stably expressing the hTfR or the mTfR fused to EGFP or CHO WT cells were saturated with PBS/BSA 2% solution during 30 min to avoid non-specific binding, followed by incubation with purified VHHs at concentrations ranging from 50 μM to 5 μM for 1 hr. After one wash in PBS/BSA 2%, cells were incubated for 1 hr with an anti-6His tag antibody (mouse), washed twice with PBS/BSA 2%, and incubated for 45 min with an Alexa647-conjugated anti-mouse secondary antibody. After two last washes in PBS/BSA 2%, cells were fixed by incubation for 15 min with PBS/PFA 2%, washed once with PBS and finally resuspended in PBS and stored at 4° C. Fluorescence levels were assessed using an Attune NxT Flow Cytometer (Thermo Fisher Scientific).

[10] = target: T1, mouse transferrin receptor (mTfR) fused …; assay: flow cytometry, CHO cells
[11] = target: T1, mouse transferrin receptor (mTfR) fused …; assay: cell-based flow cytometry assay on mTfR-expressing cells (as in Example XI); Kd/app
[12] = target: T1, mouse transferrin receptor (mTfR) fused …; assay: cell-based flow cytometry assay on mTfR-expressing cells (as in Example XI)
[13] = target: T1, mouse transferrin receptor (mTfR) fused …; assay: apparent Kd, cell-based assay

T1 sequence (Q62351 whole entry, the tested form may be a part): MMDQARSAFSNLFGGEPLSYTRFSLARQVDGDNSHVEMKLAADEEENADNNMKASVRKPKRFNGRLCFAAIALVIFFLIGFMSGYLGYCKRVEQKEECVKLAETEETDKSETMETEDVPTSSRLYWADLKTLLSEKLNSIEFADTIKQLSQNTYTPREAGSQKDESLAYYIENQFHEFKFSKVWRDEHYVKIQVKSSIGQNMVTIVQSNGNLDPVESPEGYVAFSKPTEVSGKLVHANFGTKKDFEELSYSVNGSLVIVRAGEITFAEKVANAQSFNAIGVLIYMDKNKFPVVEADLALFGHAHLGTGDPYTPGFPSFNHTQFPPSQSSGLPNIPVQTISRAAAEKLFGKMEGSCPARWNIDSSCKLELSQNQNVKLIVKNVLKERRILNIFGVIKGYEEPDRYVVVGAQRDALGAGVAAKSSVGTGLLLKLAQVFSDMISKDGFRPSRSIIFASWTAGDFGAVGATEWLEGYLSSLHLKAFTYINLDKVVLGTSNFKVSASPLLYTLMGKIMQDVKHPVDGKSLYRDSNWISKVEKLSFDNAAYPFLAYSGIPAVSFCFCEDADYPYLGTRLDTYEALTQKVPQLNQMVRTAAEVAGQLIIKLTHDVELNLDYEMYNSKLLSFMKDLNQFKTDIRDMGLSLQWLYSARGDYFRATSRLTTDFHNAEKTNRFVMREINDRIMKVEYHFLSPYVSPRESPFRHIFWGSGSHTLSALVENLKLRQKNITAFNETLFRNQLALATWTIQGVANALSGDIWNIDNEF

B1: VHH A5 (C5^V5) (VHH)
VHH: EVQLVESGGGVVQPGGSLKLSCVASGTDFSINFIRWYRQAPGKQREFVAGFTATGNTNYADSMKGRFTISRDNTKNAVYLQIDSLKPEDTAVYYCAMLDKWGQGTQVTVSS
Question: What does the source list for B1?
Answer: Kd [1]: 0.604 µM; Kd [2]: 0.18 µM; Kd [3]: 0.154 µM; koff [3]: 0.0509 s⁻¹; kon [3]: 332000 M⁻¹ s⁻¹; Kd [4]: 0.025 µM

B2: VHH A-NODAGA bioconjugate (VHH, not shown: small tags and cut ends)
VHH: B1 VHH with A96Y
modifications: NODAGA-BCN clicked to an azido linker on the Gln of the C-terminal Q-tag
Question: How did the Kd [5] turn out when B2 was run?
Answer: 0.00773 µM

B3: VHH A17 (C5^V17) (VHH)
VHH: B1 VHH with A96Y, L98I
Question: What does the source list for B3?
Answer: Kd [6]: 0.0053 µM; Kd [7]: 0.003 to 0.004 µM; Kd [8]: 0.208 µM

B4: VHH A19 (C5^V19) (VHH)
VHH: B1 VHH with A96Y, D99E
Question: Which Kd [6] does the source give for B4 here?
Answer: 0.0092 µM

Question: And the Kd [2]?
Answer: 0.00713 µM

Question: And the Kd [3]?
Answer: 0.0223 µM

Question: And the koff [3]?
Answer: 0.0097 s⁻¹

Question: And the kon [3]?
Answer: 426000 M⁻¹ s⁻¹

Question: What about the Kd [8] of the same binder?
Answer: 0.21 µM

B5: 13C3-HC-VHH A1 (antibody)
heavy: QVQLQQSGPELVRPGVSVKISCKGSGYTFTDYAMHWVKQSHAKSLEWIGVISTKYGKTNYNQKFKGKATMTVDKSSSTAYMELARLTSEDSAIYYCARGDDGYSWGQGTSVTVSSAKTTPPSVYPLAPGSAAQTNSMVTLGCLVKGYFPEPVTVTWNSGSLSSGVHTFPAVLQSDLYTLSSSVTVPSSTWPSETVTCNVAHPASSTKVDKKIVPRDCGCKPCICTVPEVSSVFIFPPKPKDVLTITLTPKVTCVVVDISKDDPEVQFSWFVDDVEVHTAQTQPREEQFNSTFRSVSELPIMHQDWLNGKEFKCRVNSAAFPAPIEKTISKTKGRPKAPQVYTIPPPKEQMAKDKVSLTCMITDFFPEDITVEWQWNGQPAENYKNTQPIMDTDGSYFVYSKLNVQKSNWEAGNTFTCSVLHEGLHNHHTEKSLSHSPGGGGGMAEVQLVESGGGVVQPGGSLKLSCVASGADFSINFIRWYRQAPGKQREFVAGFTATGNTNYADSMKGRFTISRDNTKNAVYLQIDSLKPEDTAVYYCYMLDKWGQGTQVTVSSAAA
light: DVVMTQTPLSLPVSLGDQASISCRSGQSLVHSNGNTYLHWYLQKPGQSPKLLIYTVSNRFSGVPDRFSGSGSGSDFTLKISRVEAEDLGVYFCSQNTFVPWTFGGGTKLEIKRADAAPTVSIFPPSSEQLTSGGASVVCFLNNFYPKDINVKWKIDGSERQNGVLNSWTDQDSKDSTYSMSSTLTLTKDEYERHNSYTCEATHKTSTSPIVKSFNRNEC
Question: Which results are given for B5?
Answer: Kd [9]: 0.0094 µM; Bmax, fold lower than 13C3-HC-VHH A [10]: 2 fold

B6: 13C3-HC-C5h16 (antibody)
heavy: QVQLQQSGPELVRPGVSVKISCKGSGYTFTDYAMHWVKQSHAKSLEWIGVISTKYGKTNYNQKFKGKATMTVDKSSSTAYMELARLTSEDSAIYYCARGDDGYSWGQGTSVTVSSAKTTPPSVYPLAPGSAAQTNSMVTLGCLVKGYFPEPVTVTWNSGSLSSGVHTFPAVLQSDLYTLSSSVTVPSSTWPSETVTCNVAHPASSTKVDKKIVPRDCGCKPCICTVPEVSSVFIFPPKPKDVLTITLTPKVTCVVVDISKDDPEVQFSWFVDDVEVHTAQTQPREEQFNSTFRSVSELPIMHQDWLNGKEFKCRVNSAAFPAPIEKTISKTKGRPKAPQVYTIPPPKEQMAKDKVSLTCMITDFFPEDITVEWQWNGQPAENYKNTQPIMDTDGSYFVYSKLNVQKSNWEAGNTFTCSVLHEGLHNHHTEKSLSHSPGGGGGMAEVQLVESGGGLVQPGGSLRLSCAASGTDFSINFIRWYRQAPGKGLEFVAGFTATGNTNYADSVKGRFTISRDNSKNTLYLQMNSLRAEDTAVYYCYMLDKWGQGTLVTVSSAAA
light: B5 light
Question: With B6 as the binder, how does the Kd [11] read?
Answer: 0.0196 µM

Question: And the Bmax [12]?
Answer: 381 RFI

Question: What about the “binding potential, fold lower than 13C3-HC-C5h20” value [10] of the same binder?
Answer: ~3 fold

B7: B8 h1-NT(8-13) (VHH)
VHH: EVQLVESGGGVVQPGGSLRLSCAASGEIFSINFMRWYRQAPGKGLEWVAGFTRDGSTNYPDSVKGRFTISRDNAKNTVYLQMNSLRPEDTAVYYCYMLDTWGQGTQVTVSS
Question: B7 was tested. Which Kd [13] did it give?
Answer: 0.0028 µM

B8: B8V1-NT(8-13) (VHH)
VHH: B7 VHH with S25D, G44Q, L45R, V63A, M82I, N83D, R86K
Question: B8 was tested. Which Kd [13] did it give?
Answer: 0.0083 µM
